Here are results for 5 molecules from publication PMC5356271, “Identification of a tripartite interaction between the N-terminus of HIV-1 Vif and CBFβ that is critical for Vif function” (Retrovirology, 2017).

The target in experiment [1] is T1, Flag-CBFβ I55D (UniProt Q13951 1-170, I55D).
T1 construct: source: 293T, transfected, in lysate
T1 sequence: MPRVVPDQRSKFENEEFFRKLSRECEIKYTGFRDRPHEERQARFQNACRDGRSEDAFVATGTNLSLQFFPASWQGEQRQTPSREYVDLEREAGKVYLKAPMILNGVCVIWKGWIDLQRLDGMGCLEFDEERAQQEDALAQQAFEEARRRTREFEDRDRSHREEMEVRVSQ
Put plainly: co-IP; 293T cells co-transfected with Flag-CBFβ (4 μg) and untagged Vif (4 μg); lysates after 48 h; anti-Flag immunoprecipitation; co-precipitated Vif quantified by western blot (Odyssey) relative to wild type set to 100%; for the CBFβ mutants endogenous CBFβ was first knocked down by siRNA against the 3' UTR (Fig. 5, 7) and cells were treated with MG132 (5 μM, 16 h) in Fig. 7. The note with it: partners not purified. (Immunoblotting shows a protein as a band on a membrane.)

In experiment [2] the target is T2, Flag-CBFβ I55A–F68D (UniProt Q13951 1-170, I55A | F68D).
T2 construct: source: 293T, transfected, in lysate
T2 sequence: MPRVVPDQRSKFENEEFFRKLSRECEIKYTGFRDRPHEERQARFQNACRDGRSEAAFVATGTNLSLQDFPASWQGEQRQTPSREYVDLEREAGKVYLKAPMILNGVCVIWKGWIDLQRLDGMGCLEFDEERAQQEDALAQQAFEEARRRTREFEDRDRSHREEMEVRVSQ
The description is as above. The note with it: partners not purified.

For experiment [3], the target named is T3, Flag-CBFβ I55D–F68D (UniProt Q13951 1-170, I55D | F68D).
T3 construct: source: 293T, transfected, in lysate
T3 sequence: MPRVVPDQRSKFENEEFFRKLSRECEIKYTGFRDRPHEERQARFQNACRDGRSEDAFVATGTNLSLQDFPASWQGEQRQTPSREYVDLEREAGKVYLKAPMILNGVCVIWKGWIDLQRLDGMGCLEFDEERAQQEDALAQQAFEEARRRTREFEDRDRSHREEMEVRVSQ
The experiment is described as above. Particulars: partners not purified.

Experiment [4] has as its target T4, Flag-CBFβ F68D (UniProt Q13951 1-170, F68D).
T4 construct: source: 293T, transfected, in lysate
T4 sequence: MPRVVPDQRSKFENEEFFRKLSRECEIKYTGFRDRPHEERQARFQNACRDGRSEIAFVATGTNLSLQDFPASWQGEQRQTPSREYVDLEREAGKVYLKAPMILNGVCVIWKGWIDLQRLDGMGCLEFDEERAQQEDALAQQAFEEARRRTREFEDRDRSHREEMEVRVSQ
The experiment is described as above. The note with it: partners not purified.

In experiment [5] the target is T5, Flag-CBFβ (core-binding factor β), wild type (UniProt Q13951 1-170).
T5 construct: Flag-CBFβ expression plasmid obtained from Addgene; plasmid number not given; also called CBFβ-WT; WT CBFβ; source: 293T, transfected, in lysate
T5 sequence: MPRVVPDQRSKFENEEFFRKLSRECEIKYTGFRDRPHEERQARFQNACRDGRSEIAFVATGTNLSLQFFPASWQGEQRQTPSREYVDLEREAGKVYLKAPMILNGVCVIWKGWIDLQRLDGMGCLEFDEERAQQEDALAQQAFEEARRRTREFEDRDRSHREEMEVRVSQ
Described as above. The note with it: partners not purified.

Experiment [6] has as its target T5, Flag-CBFβ (core-binding factor β), wild …. As to the kind of experiment: cell-based or functional assay.

B1: HIV-1 Vif, wild type (natural protein)
chain: not shown
notes: HIV-1 Vif; Untagged; also called WT Vif; source: 293T, transfected, in lysate
Take B1: the “binding efficiency relative to CBFβ-WT (100%)” value in experiment [1] is about 15%; in experiment [2], about 8%; in experiment [3], about 8%; in experiment [4] it was about 28%.

B2: HIV-1 Vif 5WQVM8 > A4 (quadruple-alanine substitution mutant) (natural protein)
chain: not shown
notes: HIV-1 Vif; Untagged; also called 5WQVM8 > 4A; source: 293T, transfected, in lysate
Regarding B2, the “binding efficiency relative to WT Vif (100%)” value in experiment [5] came out at 2%.

B3: HIV-1 Vif 9IVW11 > A3 (triple-alanine substitution mutant) (natural protein)
chain: not shown
notes: HIV-1 Vif; Untagged; also called 9IVW11 > 3A; source: 293T, transfected, in lysate
Take B3: the “binding efficiency relative to WT Vif (100%)” value in experiment [5] was found to be 0.3%.

B4: HIV-1 Vif W11A (natural protein)
chain: not shown
For B4, in experiment [6], the “infectivity of virus produced with A3G in CBFβ-depleted (siRNA) 293T cells, relative to WT Vif with control siRNA (100%)” value amounted to 4%.

B5: HIV-1 Vif V7A–M8A (natural protein)
chain: not shown
For the molecule B5, the “infectivity of virus produced with A3G in CBFβ-depleted (siRNA) 293T cells, relative to WT Vif with control siRNA (100%)” value in experiment [6] is 8%.
